{"source": "paper PMC4570970", "proteins": {"B1": {"name": "5-epi-aristolochene synthase (TEAS) (Nicotiana tabacum) (protein)", "chain": "MASAAVANYEEEIVRPVADFSPSLWGDQFLSFSIKNQVAEKYAKEIEALKEQTRNMLLATGMKLADTLNLIDTIERLGISYHFEKEIDDILDQIYNQNSNCNDLCTSALQFRLLRQHGFNISPEIFSKFQDENGKFKESLASDVLGLLNLYEASHVRTHADDILEDALAFSTIHLESAAPHLKSPLREQVTHALEQCLHKGVPRVETRFFISSIYDKEQSKNNVLLRFAKLDFNLLQMLHKQELAQVSRWWKDLDFVTTLPYARDRVVECYFWALGVYFEPQYSQARVMLVKTISMISIVDDTFDAYGTVKELEAYTDAIQRWDINEIDRLPDYMKISYKAILDLYKDYEKELSSAGRSHIVCHAIERMKEVVRNYNVESTWFIEGYTPPVSEYLSNALATTTYYYLATTSYLGMKSATEQDFEWLSKNPKILEASVIICRVIDDTATYEVEKSRGQIATGIECCMRDYGISTKEAMAKFQNMAETAWKDINEGLLRPTPVSTEFLTPILNLARIVEVTYIHNLDGYTHPEKVLKPHIINLLVDSIKI"}}, "substrate": "CC(C)=CCC/C(C)=C/CC/C(C)=C/CO[P@@](=O)(O)OP(=O)(O)O", "test": "purified protein", "settings": "Mg2+ active site", "data": [{"protein": "B1", "values": [{"measurement": "Km", "result": 4.47, "unit": "µM"}]}]}
